Laboratory results from patent US7101851 (dated 2006).
Bridges are numbered along the chain shown (N, C = ends). Where no end group is shown, it is not given here. [ ]: non-standard residue; d: D form. The star is where a group is joined. hSer(lactone) = O=C1OCC[C@@H]1N*

Key:
[1] = biological target: T1, extracellular domain of the alpha subunit of the human FcεRI (aa 1-176), produced in baculovirus infected … (human, UniProt P12319 26-201, N-linked carbohydrate (NAG on Asn21 seen in the crystal); derivatised with PDEA for thiol coupling to the chip in the biosensor assay); test: SPR biosensor (BIAcore), peptide over immobilized FcεRIα, steady-state saturation curve, 4-parameter fit
T1 construct: range 1-176; Residues 1-176 are probably counted without the signal peptide; also called FcεRIα; soluble FcεRI
T1 sequence (looked up): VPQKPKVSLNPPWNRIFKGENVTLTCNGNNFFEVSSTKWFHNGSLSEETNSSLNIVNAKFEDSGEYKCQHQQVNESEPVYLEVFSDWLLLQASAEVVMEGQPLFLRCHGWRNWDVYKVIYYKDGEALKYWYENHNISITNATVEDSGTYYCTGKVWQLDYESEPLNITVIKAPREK
Experimental: *peptide is a dimer. SEQ ID NO: describes each monomer of the dimer. "ava" = amino-valeric acid Several peptides were also tested in a direct-binding assay using a surface plasmon resonance biosensor (Lofas & Johnsson, *J. Chem. Soc. Commun.* 21, 1526–1528 (1990)). FcεRIα, produced in baculovirus infected insect cells, was immobilized by the surface thiol method (BIAcore Methods Manual Supplement 5a, BIAcore, Inc., Piscataway, N.J.). Briefly, receptor was reacted with 2-(2-pyridinyldithio)ethaneamine hydrochloride (PDEA; Natake & Swaisgood, *J. Biochem.* 74, 77–86 (1973)), desalted into 10 mM sodium acetate (pH 4.8) and stored in aliquots at −80° C. Thawed PDEA-receptor was injected over carboxymethyl-dextran (B1 or CM5, BIAcore, Inc.) biosensor chips preactivated with N-ethyl-N'-(3-dimethylaminopropyl)-carbodiimide hydrochloride (EDC) and N-hydroxysuccinimide (NHS), cystamine, and DTT. Following coupling, reactive groups on the chip were quenched with PDEA and ethanolamine. Serial dilutions of peptide in running buffer (phosphate-buffered saline containing 0.05% Tween-20, 0.01% sodium azide) were injected over the immobilized receptor, and the net amount of peptide bound at steady-state was measured as the net change in response (RU) at a point just prior to termination of peptide injection, compared to a running-buffer baseline. Binding affinities (Table 10) are reported as the midpoint ($EC50$) of a 4-parameter fit to the peptide saturation curve. In the case of IGE134 (SEQ ID NOS:), the value shown indicates the Kd calculated from the rate constants, $kon$ and $koff$. The results of binding assays (Table 8) correlate well with those of inhibition assays (Table 7).

[2] = biological target: T2, alpha subunit of the human FcεRI receptor expressed on Chinese hamster ovary cells (human, UniProt P12319 26-257); test: inhibition of 125I-IgE binding to CHO cells expressing human FcεRI alpha subunit
T2 construct: whole, on cells; also called CHO FcεRI+ cells
T2 sequence (looked up): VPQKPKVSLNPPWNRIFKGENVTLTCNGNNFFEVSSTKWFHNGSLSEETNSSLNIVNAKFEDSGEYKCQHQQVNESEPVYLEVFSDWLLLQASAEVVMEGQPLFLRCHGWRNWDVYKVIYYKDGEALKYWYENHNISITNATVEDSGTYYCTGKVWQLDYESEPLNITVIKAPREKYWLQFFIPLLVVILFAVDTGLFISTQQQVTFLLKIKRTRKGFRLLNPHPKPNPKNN
Experimental: To determine the ability of peptides to inhibit IgE binding to FcεRI, a cell-based binding assay was used with radiolabeled IgE. Chinese hamster ovary cells expressing the alpha subunit of the human FcεRI receptor were cultured overnight in Falcon 96 well microtiter plates at a concentration of 5 ×10^4 cells per well. The following day the cells were rinsed three times with PBS and then once with F12/DMEM. Peptide stocks were reconstituted in 100 mM Hepes buffered water, pH 7.2, at a concentration of 5 mg/mL. Working concentrations of the peptide were diluted in assay buffer (see below). 75 uL of a desired concentration of peptide was added to the top row of a separate 96 well microtiter plate and serially diluted 1:3 in 50 uL of the assay buffer (F12/DMEM, 1% BSA, 0.05% NaN_3 and 0.025 mM Hepes pH 7.2). Starting concentrations ranged from 50–500 uM. Next, 50 uL of the diluted peptide was transferred to the 96 microtiter well plate containing a monolayer of CHO FcεRI+ cells. […] Cells were […]

[3] = biological target: T3, alpha subunit of the human FcεRI receptor expressed on cells (human, UniProt P12319 26-257); test: inhibition of 125I-IgE binding to CHO cells expressing human FcεRI alpha
T3 construct: whole, on cells; on rat basophil RBL-48 cells in the histamine release assay; also called CHO FcεRI+ cells; cell surface expressed FcεRI
T3 sequence (looked up): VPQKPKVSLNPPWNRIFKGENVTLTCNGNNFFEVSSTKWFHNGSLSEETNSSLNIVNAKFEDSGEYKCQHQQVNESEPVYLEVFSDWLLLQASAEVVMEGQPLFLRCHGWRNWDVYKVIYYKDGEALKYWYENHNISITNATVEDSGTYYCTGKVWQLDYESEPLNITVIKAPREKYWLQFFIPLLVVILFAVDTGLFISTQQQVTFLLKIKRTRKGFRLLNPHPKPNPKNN
Experimental: To determine the ability of peptides to inhibit IgE binding to FcεRI, a cell-based binding assay was used with radiolabeled IgE. Chinese hamster ovary cells expressing the alpha subunit of the human FcεRI receptor were cultured overnight in Falcon 96 well microtiter plates at a concentration of 5 ×10^4 cells per well. The following day the cells were rinsed three times with PBS and then once with F12/DMEM. Peptide stocks were reconstituted in 100 mM Hepes buffered water, pH 7.2, at a concentration of 5 mg/mL. Working concentrations of the peptide were diluted in assay buffer (see below). 75 uL of a desired concentration of peptide was added to the top row of a separate 96 well microtiter plate and serially diluted 1:3 in 50 uL of the assay buffer (F12/DMEM, 1% BSA, 0.05% NaN_3 and 0.025 mM Hepes pH 7.2). Starting concentrations ranged from 50–500 uM. Next, 50 uL of the diluted peptide was transferred to the 96 microtiter well plate containing a monolayer of CHO FcεRI+ cells. […] Cells were
Alanine substitutions in IGE063 (SEQ ID NO:49) were used to assess sidechain contributions. The P9A (IGE070, SEQ ID NO:52) substitution had the largest impact with a >500× reduction in binding. […] Clearly the alanine substitutions at G8, P9, W10, G11 and W12 all had major impacts on binding FcεRI.

B1: IGE122 (peptide)
peptide: VQCPHFCYVGGKALCPDVCYV-NH2
modifications: disulfide (positions not given here); also: oxidized, disulfide-bonded Cys, pairing not given here
B1 was tested, and the EC50 [1] was 150 nM.

Ac-NLPRCTEGPAWGWVCM (disulfide 5-15 (inferred), synthetic) [IGE125] was tested, and the IC50 [2] was 259000 nM.

B2: IGE119 (peptide)
peptide: NGCPGWCYVGGKALCPDVCYV-NH2
modifications: disulfide 7-15, 3-19; N-terminus assumed
SMILES: CC(C)C[C@@H]1NC(=O)[C@H](C)NC(=O)[C@H](CCCCN)NC(=O)CNC(=O)CNC(=O)[C@H](C(C)C)NC(=O)[C@H](Cc2ccc(O)cc2)NC(=O)[C@@H]2CSSC[C@H](NC1=O)C(=O)N1CCC[C@H]1C(=O)N[C@@H](CC(=O)O)C(=O)N[C@@H](C(C)C)C(=O)N[C@H](C(=O)N[C@@H](Cc1ccc(O)cc1)C(=O)N[C@H](C(N)=O)C(C)C)CSSC[C@H](NC(=O)CNC(=O)[C@@H](N)CC(N)=O)C(=O)N1CCC[C@H]1C(=O)NCC(=O)N[C@@H](Cc1c[nH]c3ccccc13)C(=O)N2
B2 was tested, and the EC50 [1] was 1400 nM.

B3: IGE123 (peptide)
peptide: VKCPSLCYVGGKALCPDVCYV-NH2
modifications: disulfide (positions not given here); also: oxidized, disulfide-bonded Cys, pairing not given here
B3 was tested, and the EC50 [1] was 180 nM.

PRCTEGPWGWVCM-NH2 (disulfide 3-12 (inferred)) [IGE069] was tested, and the “fold reduction in inhibition (against IGE063)” value [3] was 34 fold.

For Ac-NLPRCTEGPWGWVC (disulfide 5-14 (inferred)) [IGE082], the “fold reduction in binding (against IGE063)” value (“fold reduction in binding” below) [3] was greater than 400 fold.

Work on ALCPAVCYV-NH2 (also: antiparallel disulfide-linked homodimer, interchain C3-C7' and C7-C3', also called IGE037 dimer) [IGE089] yielded an EC50 [1] of 64000 nM.

In the case of LPRCTEGPWGWVCM-NH2 (disulfide 4-13 (inferred)) [IGE068], the “fold reduction in inhibition (against IGE063)” value [3] is reported as 3 fold.

With Ac-NLPRCTEGPWGWVCM (disulfide 5-14 (inferred)) [IGE063] the IC50 [3] was roughly 1000 nM.

In the case of NLPRCTEGPWAWVCM (disulfide 5-14 (inferred)) [IGE074], the “fold reduction in binding” value [3] is reported as 30 fold.

In the case of NLPRCTEAPWGWVCM (disulfide 5-14 (inferred), also called G8A) [IGE079], the “fold reduction in binding” value [3] is reported as 256 fold.

In the case of NLPRCTEGPWGAVCM (disulfide 5-14 (inferred), also called W12A) [IGE073], the “fold reduction in binding” value [3] is reported as 65 fold.

For NLPRCTEGAWGWVCM (disulfide 5-14 (inferred), also called P9A) [IGE070], the “fold reduction in binding” value [3] was greater than 500 fold.

For NLPRCTEGPWGWVCMAAD-NH2 (disulfide 5-14 (inferred), synthetic) [IGE043], the IC50 [2] was 1400 nM.

B4: IGE107 (peptide)
peptide: Ac-NLPCTEGPWGWVCM
modifications: disulfide 4-13 (inferred)
notes: synthetic; As printed it lacks the Arg before the first Cys
For B4, the IC50 [2] was 28000 nM.

B5: IGE121 (peptide)
peptide: VVCPNMCYVGGKALCPDVCYV-NH2
modifications: disulfide (positions not given here); also: oxidized, disulfide-bonded Cys, pairing not given here
With B5 the EC50 [1] was 340 nM.

For Ac-NLPRCTAGPWGWVCMAAD-NH2 (disulfide 5-14 (inferred), also called E7A) [IGE059], the “fold reduction in binding” value [3] was 6 fold.

B6: IGE083 (peptide)
peptide: ALCPAVCYVGGKALCPDVCYV-NH2
modifications: disulfide 7-15, 3-19; N-terminus assumed
SMILES: CC(C)C[C@H](NC(=O)[C@H](C)N)C(=O)N[C@H]1CSSC[C@@H](C(=O)N[C@@H](Cc2ccc(O)cc2)C(=O)N[C@H](C(N)=O)C(C)C)NC(=O)[C@H](C(C)C)NC(=O)[C@H](CC(=O)O)NC(=O)[C@@H]2CCCN2C(=O)[C@@H]2CSSC[C@H](NC(=O)[C@H](C(C)C)NC(=O)[C@H](C)NC(=O)[C@@H]3CCCN3C1=O)C(=O)N[C@@H](Cc1ccc(O)cc1)C(=O)N[C@@H](C(C)C)C(=O)NCC(=O)NCC(=O)N[C@@H](CCCCN)C(=O)N[C@@H](C)C(=O)N[C@@H](CC(C)C)C(=O)N2
notes: single chain dimer form of IGE089 with Ala17Asp
Binder B6 has an EC50 [1] of 1100 nM.

B7: IGE120 (peptide)
peptide: IVCPRLCYVGGKALCPDVCYV-NH2
modifications: disulfide (positions not given here); also: oxidized, disulfide-bonded Cys, pairing not given here
For B7, the EC50 [1] was 260 nM.

B8: IGE127 (peptide)
peptide: IVCARLCYVGGKALCPDVCYV-NH2
modifications: disulfide (positions not given here); not fully specified (bridges); also: oxidized, disulfide-bonded Cys, pairing not given here
notes: P4A variant of IGE120
In the case of B8, the EC50 [1] is reported as 13000 nM.

In the case of Ac-NLPRCTEGPWGWVC[hSer(lactone)] (disulfide 5-14 (inferred)) [IGE133], the IC50 [2] is reported as 2500 nM.

For EIQECTEGPWGWFCVGSG (disulfide 5-14 (inferred), also called peptide of clone g8b.11) [synthetic peptide EIQECTEGPWGWFCVGSG (SEQ ID NO:8)], the IC50 [3] was 37000 nM and the “fold improvement in activity over the … (SEQ ID NO:1) peptide” value [3] was greater than 4 fold.
